Experimental data taken from patent US20090098076A1, “Method For the Production of a Keratin-Binding Effector Molecule” (BASF SE, priority 2005, published 2009).

Legend:
[1] = biological target: human hair keratin (human hair, cut into 5 mm sections) (human); assay: quantitative hair binding test, anti-polyHis peroxidase conjugate, TMB
hair (human) [2] = assay: Quantitative binding to hair (KBD activity test hair, Example 10); conditions: for binding to hair, KBD-B compared with comparison protein: binding test on hair, result in words; for measured absorption values at 405 nm (quantitative KBD activity test hair): human hair, detection via His tag with antibody-peroxidase conjugate and TMB
Description: In this test, hair was firstly incubated with KBD and excess KBD was washed off. An antibody-peroxidase conjugate was then coupled via the His tag of the KBD. Nonbound antibody-peroxidase conjugate was washed off again. The bound anti body-peroxidase conjugate [Monoclonal AntipolyHistidine Peroxidase Conjugate, produced in mouse, lyophilized powder, Sigma] can convert a colorless substrate (TMB) into a colored product, which can be measured photometrically at 405 nm. The intensity of the absorption indicates the amount of bound KBD or comparison protein. The comparison protein chosen was, for example, YaaD from B. subtilis, which likewise had—as is necessary for this test—a His tag for the detection. Instead of the His tag, other specific antibodies conjugated with peroxidase can also be used.
(or at least 2 h at room temperature) with gentle swinging movements. • Centrifugation, removal of the supernatant • 3× washing with PBS […] • Incubation with 1 ml monoclonal mouse anti-tag (His6 or HA) antibodies with peroxidase:conjugate (1:2000 in PBS/0.05% Tween 20) [Monoclonal AntipolyHistidine Peroxidase Conjugate, produced in mouse, lyophilized powder, Sigma] for 2-4 h at room temperature, gentle swinging movement • 3× washing with PBS/0.05% Tween 20 • Addition of peroxidase substrate (1 ml/Eppendorf vessel) • Allow reaction to proceed until blue coloration (about 2 minutes). • Stop the reaction with […] of 2 M H2SO4. • The absorption is measured at 405 nm.
Peroxidase Substrate (Prepare Shortly Beforehand):
0.1 ml TMB solution (42 mM TMB in DMSO) +10 ml of substrate buffer (0.1 M sodium acetate pH 4.9) +14.7 μl H2O2 3% strength BSA=Bovine serum albumin PBS=Phosphate buffered salt solution
Tween 20=polyoxyethylene sorbitan monolaureate, n about 20
TMB=3,5,3′,5′-tetramethylbenzidine

[3] = biological target: human hair keratin (human hair, cut into 5 mm sections) (human); assay: quantitative hair binding test, loss relative to untreated hair after 10% strength SDS treatment
[4] = biological target: human skin keratin (human); assay: quantitative skin binding test, loss relative to untreated skin after 10% strength SDS treatment
[5] = biological target: human hair keratin (human hair, cut into 5 mm sections) (human); assay: quantitative hair binding test, anti-polyHis peroxidase conjugate, TMB; protein renatured
[6] = biological target: human skin keratin (human); assay: quantitative skin binding test (human keratinocytes in microtiter plates), anti-His antibody, TMB; after 10% strength SDS treatment; conditions: scale: absorption at 405 nm, standardized to the surface
[7] = biological target: human hair keratin (human hair, cut into 5 mm sections) (human); assay: quantitative hair binding test, anti-polyHis peroxidase conjugate, TMB; protein denatured (not renatured)
[8] = biological target: human skin keratin (human); assay: quantitative skin binding test (human keratinocytes in microtiter plates), anti-His antibody, TMB; conditions: scale: absorption at 405 nm, standardized to the surface
hair (human) [9] = assay: Quantitative binding to hair (Example 15); conditions: relative to untreated hair
Description: (§1) In order to investigate the binding strength of the KBD-D (SEQ ID No.:168) to skin and hair compared to the KBD-B (SEQ ID No.:166), a quantitative test was carried out. In this test firstly hair was incubated with KBD-B or KBD-D and excess KBD-D or -D was washed off. An antibody-peroxidase conjugate was then coupled via the His/tag of the KBD-B or -D. Nonbound antibody-peroxidase conjugate was washed off again. The bound antibody-peroxidase conjugate can convert a colorless substrate (TMB) into a colored product, which was measured photometrically at 405 nm. The intensity of the absorption indicates the amount of bound KBD-B or -D.
In order to characterize the hair binding of the KBD-D compared to the KBD-B, the following binding assay was carried out:
5 mg of hair (human) were cut into sections 5 mm in length and transferred to Eppendorf vessels (protein low-bind). • addition of 1 ml of ethanol for degreasing • centrifugation, removal of ethanol and washing of the hair with H2O • centrifugation, removal of the supernatant • addition of the keratin-binding domains to be tested (coupled to tag—e.g. His6, HA etc.) in 1 ml of PBS/0.05% Tween 20; incubation for 2 h at room temperature with gentle swinging movements • centrifugation, removal of the supernatant • 3× washing with PBS/0.05% Tween 20 • incubation with 1 ml monoclonal mouse anti-tag-(His6 or HA) antibodies with peroxidase conjugate (1:2000 in PBS/0.05% Tween 20) [Monoclonal AntipolyHistidine Peroxidase Conjugate, produced in mouse, lyophilized powder, Sigma] for 2-4 h at room temperature, gentle swinging movement • 3× washing with PBS/0.05% Tween 20 • addition of peroxidase substrate (1 ml/Eppendorf vessel) • allow reaction to proceed until blue coloration (90 seconds). • stop the reaction with 100 μl of 2 M H2SO4.
The absorption was measured at 405 nm
(§2) Peroxidase Substrate (Prepared Shortly Beforehand):
0.1 ml TMB solution (42 mM TMB in DMSO) +10 ml substrate buffer (0.1 M sodium acetate pH 4.9) +14.7 μl H2O2 3% strength BSA=bovine serum albumin PBS=phosphate buffered salt solution Tween 20=polyoxyethylene sorbitan monolaureate, n about 20 TMB=3,5,3′,5′-tetramethylbenzidine

human keratinocytes = assay: Quantitative binding to skin (Example 15)
Description: as §1
The test for binding to skin was carried out with human keratinocytes in microtiter plates as follows. • 2× washing with PBS/0.05% Tween 20 • addition of 1 ml of 1% BSA in PBS and incubation for 1 h at room temperature, gentle swinging movements (900 rpm). • removal of the supernatant • addition of 100 μg of KBD in PBS with 0.03% Tween 20; incubation for 2 h at room temperature and gentle swinging movements (900 rpm). • removal of the supernatant • 3× washing with PBS/0.05% Tween 20 • incubation with 1 ml of monoclonal mouse anti-tag-His6 antibodies for 2-4 h at room temperature, gentle swinging movement (900 rpm) • 3× washing with PBS/0.05% Tween 20 • addition of peroxidase substrate (1 ml/Eppendorf vessels composition see below) reaction until a blue coloration (about 90 seconds). • reaction stopped with 100 μl of 2 M H2SO4. • the absorption was measured at 405 nm.
as §2
0.1 ml TMB solution (42 mM TMB in DMSO) +10 ml substrate buffer (0.1 M sodium acetate pH 4.9) +14.7 μl H2O2 3% strength

hair = assay: Hair-binding activity of KBD-B-panthenol (Example 24a)
Description: In order to check whether KBD-B also binds with coupled panthenol to hair, a quantitative binding assay was carried out (see FIG. 6): In this test, hair was firstly incubated with KBD-B-panthenol and nonbound KBD-B-panthenol was washed off. A peroxidase was then coupled via the His tag of the KBD-B. Nonbound peroxidase was washed off again. The bound peroxidase can convert a colorless substrate (TMB) into a colored product which was measured photometrically at 405 nm. The intensity of the absorption indicates the amount of bonded KBD-B-panthenol. As comparison sample, KBD-B without panthenol was chosen.
Only above a mixing ratio of 1:4 does the hair binding activity decrease. Coupling to lysines or cysteines present in the protein structure which is no longer selective could be responsible for this, which could lead to an unfolding and thus poorer hair coupling of the protein.

B1: Comparison protein YaaD from B. subtilis (His-tagged) (protein, UniProt P37527 1-294, looked up)
chain: MAQTGTERVKRGMAEMQKGGVIMDVINAEQAKIAEEAGAVAVMALERVPADIRAAGGVARMADPTIVEEVMNAVSIPVMAKARIGHIVEARVLEAMGVDYIDESEVLTPADEEFHLNKNEYTVPFVCGCRDLGEATRRIAEGASMLRTKGEPGTGNIVEAVRHMRKVNAQVRKVVAMSEDELMTEAKNLGAPYELLLQIKKDGKLPVVNFAAGGVATPADAALMMQLGADGVFVGSGIFKSDNPAKFAKAIVEATTHFTDYKLIAELSKELGTAMKGIEISNLLPEQRMQERGW
Absorption at 405 nm [1]: 0.088 A405 nm | binding to hair, KBD-B compared with comparison protein (hair (human) [2]): significantly poorer binding | measured absorption values at 405 nm (quantitative KBD activity test hair) (hair (human) [2]): A405 nm = 0.088

B2: KBD-B (keratin-binding domain B of human desmoplakin), expressed by the vector pQE30-KBD-B in E. coli (SEQ ID No.: 166) (protein)
chain: MRGSHHHHHHGSACELEPHTGLLLLSVQKRSMSFQGIRQPVTVTELVDSGILRPSTVNELESGQISYDEVGERIKDFLQGSSCIAGIYNETTKQKLGIYEAMKIGLVRPGTALELLEAQAATGFIVDPVSNLRLPVEEAYKRGLVGIEFKEKLLSAERAVTGYNDPETGNIISLFQAMNKELIEKGHGIRLLEAQIATGGIIDPKESHRLPVDIAYKRGYFNEELSEILSDPSDDTKGFFDPNTEENLTYLQLKERCIKDEETGLCLLPLKEKKKQVQTSQKNTLRKRRVVIVDPETNKEMSVQEGVDLQPSLIS
Relative absorption loss after 10% strength SDS treatment in % [3]: 86% | Relative absorption loss after 10% strength SDS treatment in % [4]: 80% | Absorption at 405 nm [5]: 1.59 A405 nm | Absorption at 405 nm [6]: 0.185 | Absorption at 405 nm [7]: 0.254 A405 nm | Absorption at 405 nm [8]: 0.93

B3: KBD-B denatured: KBD-B (SEQ ID No.: 166) from inclusion bodies, not renatured (protein, listed as Homo sapiens)
chain: MRGSHHHHHHGSACELEPHTGLLLLSVQKRSMSFQGIRQPVTVTELVDSGILRPSTVNELESGQISYDEVGERIKDFLQGSSCIAGIYNETTKQKLGIYEAMKIGLVRPGTALELLEAQAATGFIVDPVSNLRLPVEEAYKRGLVGIEFKEKLLSAERAVTGYNDPETGNIISLFQAMNKELIEKGHGIRLLEAQIATGGIIDPKESHRLPVDIAYKRGYFNEELSEILSDPSDDTKGFFDPNTEENLTYLQLKERCIKDEETGLCLLPLKEKKKQVQTSQKNTLRKRRVVIVDPETNKEMSVQEGVDLQPSLIS
modifications: denatured
measured absorption values at 405 nm (quantitative KBD activity test hair) (hair (human) [2]): A405 nm = 0.254

B4: KBD-B: keratin-binding domain B of human desmoplakin with N-terminal His tag, SEQ ID No.: 166, expressed in E. coli (protein, listed as Homo sapiens)
chain: MRGSHHHHHHGSACELEPHTGLLLLSVQKRSMSFQGIRQPVTVTELVDSGILRPSTVNELESGQISYDEVGERIKDFLQGSSCIAGIYNETTKQKLGIYEAMKIGLVRPGTALELLEAQAATGFIVDPVSNLRLPVEEAYKRGLVGIEFKEKLLSAERAVTGYNDPETGNIISLFQAMNKELIEKGHGIRLLEAQIATGGIIDPKESHRLPVDIAYKRGYFNEELSEILSDPSDDTKGFFDPNTEENLTYLQLKERCIKDEETGLCLLPLKEKKKQVQTSQKNTLRKRRVVIVDPETNKEMSVQEGVDLQPSLIS
Relative absorption loss after 10% strength SDS treatment in %, hair (hair (human) [9]): 86% | Relative absorption loss after 10% strength SDS treatment in %, skin (human keratinocytes; relative to untreated skin): 80% | Absorption at 405 nm, binding to skin after 10% strength SDS treatment (human keratinocytes; values standardized to the surface, after 10% strength SDS treatment): 0.185 | Absorption at 405 nm, binding to skin (human keratinocytes; values standardized to the surface, no SDS treatment): 0.93 | binding to hair, KBD-B compared with comparison protein (hair (human) [2]): considerable superiority

B5: KBD-B renatured: KBD-B (SEQ ID No.: 166) renatured by dialysis (protein, listed as Homo sapiens)
chain: MRGSHHHHHHGSACELEPHTGLLLLSVQKRSMSFQGIRQPVTVTELVDSGILRPSTVNELESGQISYDEVGERIKDFLQGSSCIAGIYNETTKQKLGIYEAMKIGLVRPGTALELLEAQAATGFIVDPVSNLRLPVEEAYKRGLVGIEFKEKLLSAERAVTGYNDPETGNIISLFQAMNKELIEKGHGIRLLEAQIATGGIIDPKESHRLPVDIAYKRGYFNEELSEILSDPSDDTKGFFDPNTEENLTYLQLKERCIKDEETGLCLLPLKEKKKQVQTSQKNTLRKRRVVIVDPETNKEMSVQEGVDLQPSLIS
modifications: renatured
measured absorption values at 405 nm (quantitative KBD activity test hair) (hair (human) [2]): A405 nm = 1.591

B6: panthenol-coupled KBD-B: KBD-B (SEQ ID No.: 166) coupled via the maleimidocaproic acid linker with panthenol, Example 22 (conjugate, listed as Homo sapiens)
chain: MRGSHHHHHHGSACELEPHTGLLLLSVQKRSMSFQGIRQPVTVTELVDSGILRPSTVNELESGQISYDEVGERIKDFLQGSSCIAGIYNETTKQKLGIYEAMKIGLVRPGTALELLEAQAATGFIVDPVSNLRLPVEEAYKRGLVGIEFKEKLLSAERAVTGYNDPETGNIISLFQAMNKELIEKGHGIRLLEAQIATGGIIDPKESHRLPVDIAYKRGYFNEELSEILSDPSDDTKGFFDPNTEENLTYLQLKERCIKDEETGLCLLPLKEKKKQVQTSQKNTLRKRRVVIVDPETNKEMSVQEGVDLQPSLIS
modifications: maleimidocaproic linker-panthenol conjugate
influence of coupling reaction temperature on hair binding activity (hair; FIG. 7): no decisive influence | hair binding activity of the coupled protein (hair; above a KBD-B:panthenol mixing ratio of 1:4 (FIG. 7)): decrease | hair binding activity of the coupled protein (hair; up to a KBD-B:panthenol mixing ratio of 1:2, compared with KBD-B without panthenol (FIG. 7)): remains virtually constant
